These results are taken from patent US20150259666A1.

For experiment [1], the target named is fibrin (clot prepared from fibrinogen with bovine thrombin). Description: fibrin clot binding assay, 0.1 mg/ml fibrinogen; bound enzyme = total minus free in supernatant by ELISA.
The target is the same in experiment [2]. As to the kind of experiment: fibrin clot binding assay; ratio of CT-b to full-length t-PA.
For experiment [3] the target is unchanged. Description: fibrin clot binding assay, 0.3 mg/ml fibrinogen; bound enzyme = total minus free in supernatant by ELISA. Background: ELISA stands for enzyme-linked immunosorbent assay.

For “chimeric truncated tissue plasminogen activator (CT t-PA) or CT-b (from UniProt P98119 37-82; P00750 82-214; P00750 297-562) (enzyme)”, the values for the percent fibrin binding in experiment [1] and in experiment [3] were 28% and 60%, respectively. Besides, the fold fibrin binding against full-length t-PA in experiment [2] was 1.2 fold.

Take “full length t-PA (native human tissue plasminogen activator) (from UniProt P00750 36-562) (enzyme)”: the values for the percent fibrin binding in experiment [1] and in experiment [3] were 24% and 51%, respectively.
